Results as given in patent publication US20240228562A1, “NOVEL LIPOCALIN MUTEINS SPECIFIC FOR CONNECTIVE TISSUE GROWTH FACTOR (CTGF)” (PIERIS PHARMACEUTICALS GMBH, priority 2021, published 2024).
Numbering of substitutions follows the chain as printed.

How the values were obtained:
[1] = biological target: T1, Murine CTGF (Mus musculus, UniProt P29268); test: SPR binding kinetics and affinity, murine CTGF; conditions: 25° C., 1:1 binding model
T1 construct: purchased Abbexa
T1 sequence (P29268 26-348): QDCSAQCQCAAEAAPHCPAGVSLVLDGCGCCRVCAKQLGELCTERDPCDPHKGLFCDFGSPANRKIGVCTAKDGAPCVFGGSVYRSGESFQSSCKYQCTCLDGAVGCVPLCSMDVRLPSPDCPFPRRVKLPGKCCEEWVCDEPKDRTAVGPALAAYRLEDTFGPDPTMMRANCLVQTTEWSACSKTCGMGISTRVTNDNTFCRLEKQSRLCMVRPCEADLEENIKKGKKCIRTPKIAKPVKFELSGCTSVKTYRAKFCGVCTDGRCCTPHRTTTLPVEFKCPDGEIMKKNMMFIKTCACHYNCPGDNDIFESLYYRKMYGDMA
Method in brief: (§1)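 Targets either amine-coupled to CM5 chip (300–1100 RU; Fc-tagged human, untagged rat/murine) or Fc-captured via anti-human IgG; muteins injected 180 s contact, 900–3600 s dissociation, 30 μL/min, 25° C. Double-referenced sensorgrams fit to 1:1 model giving kon, koff and KD.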

[2] = system: bleomycin-induced lung fibrosis; test: Bleomycin mouse model of lung fibrosis; assay type: in vivo; conditions: day 14 after bleomycin
Description: The anti-fibrotic activity of lipocalin muteins upon local delivery to the lung was evaluated in vivo using a mouse model of bleomycin-induced lung fibrosis. Bleomycin is a DNA damaging agent, also used in cancer therapy, which induces a severe damage of the lung epithelium upon delivery to the lungs of rodents. The injury causes a strong inflammatory response in the lungs which in turn triggers fibrotic response. The peak of fibrotic remodeling, usually observed between day 14 and 21 after bleomycin challenge, is characterized by an excessive deposition of extracellular matrix and destruction of alveolar lung structures. Here, approximately 9 weeks old, male C57BL/6N mice were challenged with bleomycin at a dose of 1 mg/kg or saline as a control via the intranasal route. Animals were treated daily with lipocalin muteins at a dose of 5 mg/kg or PBS as a vehicle control via local delivery to the lungs from day 0 to day 13 after bleomycin challenge. […] Animals were sacrificed at day 14 after bleomycin challenge and level of lung fibrosis was analyzed in formalin fixed, paraffin embedded lung tissues by histopathological evaluation using the Ashcroft score (Matsuse modification) and quantitative digital analysis of IHC detected Collagen1a1 protein deposition.
For determination of the Ashcroft score lung tissue slides were stained according to the Crossman's Trichrome method (Gray, Peter (1954) The Microtomist's Formulary and Guide. Blakiston, New York, 1954). The whole pulmonary area subjected for histopathological analysis was evaluated at ten low magnification fields and total score for each animal was calculated as a mean (Ashcroft et al., Journal of clinical pathology 41.4 (1988): 467-470; Matsuse, T., et al. European Respiratory Journal 13.1 (1999): 71-77.). […]
Collagen1a1 (Col1a1) deposition was analyzed by immunohistochemistry as a second measure for fibrotic lung remodeling. […] Stained tissue slides were evaluated for Col1a1 deposition by digital image analysis using the morphometry protocol (CaloPix software, TRIBVN). […]

[3] = biological target: T2, Rat CTGF (Rattus norvegicus, UniProt Q9R1E9); test: SPR binding kinetics and affinity, rat CTGF; conditions: 25° C., 1:1 binding model
T2 construct: purchased R&D Systems
T2 sequence (Q9R1E9 25-347): T1 sequence (P29268 26-348) with H16R, A148V
Method in brief: as §1

[4] = biological target: T3, human CTGF (Homo sapiens, UniProt P29279, H83D); test: SPR binding kinetics and affinity, human CTGF; conditions: 25° C., 1:1 binding model
T3 construct: purchased Creative Biomart
Method in brief: (§2)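 Biacore SPR at 25 °C; CTGF either Fc-captured via anti-human IgG (HBS-EP+) or amine-coupled to CM5 (300–1100 RU). Muteins injected 180 s contact, 900–3600 s dissociation, 30 μL/min.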

[5] = biological target: T4, human CTGF (Homo sapiens, UniProt P29279); test: SPR binding kinetics and affinity, human CTGF; conditions: 25° C., 1:1 binding model
T4 construct: purchased Creative Biomart
Method in brief: as §2

[6] = Thermal stability assessment by nanoDSC; assay type: physicochemical; conditions: 1 mg/mL in PBS, scan 25-100° C. at 1° C./min
Method in brief: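 CTGF-specific lipocalin muteins at 1 mg/mL in PBS scanned from 25 to 100° C at 1° C/min by capillary nano-DSC. Where several transitions occur, the Tm of the major unfolding event is reported, along with onset temperature. Some muteins were expressed in E. coli, others in CHO cells.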

[7] = system: cynomolgus CTGF; test: SPR binding kinetics and affinity, cynomolgus CTGF; conditions: 25° C., 1:1 binding model
Description: Surface plasmon resonance (SPR) was used to measure binding kinetics and affinity of the representative lipocalin muteins disclosed herein.
The binding of exemplary lipocalin muteins to human (Creative Biomart), cynomolgus, rat (R&D Systems) and mouse CTGF (Abbexa) was determined by SPR using a Biacore instrument (Cytiva, formerly GE Healthcare). Some targets were fused to a human IgG1 Fc tag, and captured via the anti-human IgG antibody kit, others were directly immobilized.
For some measurements, human CTGF with a human IgG1 Fc Tag or rat or murine CTGF without a tag were directly immobilized to a CM5 Chip. The carboxyl groups on the chip were activated using 1-ethyl-3-(3-dimethylaminopropyl)-carbodiimide (EDC) and N-hydroxysuccinimide (NHS). Subsequently, the targets at a concentration of 3-5 μg/mL in 10 mM sodium acetate (pH) 4.5 were applied at a flow rate of 10 μL/min until an immobilization level of 300-1100 resonance units was achieved. Residual non-reacted NHS-esters were blocked by passing a solution of 1 M ethanolamine across the surface. The reference channel was activated/deactivated. For the capture setting, targets with an IgG Fc Tag at 0.25-2.5 μg/mL in HBS-EP+ buffer were captured by the anti-human IgG-Fc antibody at the chip surface for 180 s at a flow rate of 10 μL/min.
The binding assay was carried out with a contact time of 180 s, a dissociation time of 900-3600 s and a flow rate of 30 μL/min. All measurements were performed at 25° C. […] For the directly immobilized targets, the same regeneration conditions were used. Prior to the protein measurements, three startup cycles were performed for conditioning purposes. Data were evaluated with Biacore Evaluation software. Double referencing was used and the 1:1 binding model was used to fit the raw data.
The values determined for kon, koff and the resulting equilibrium dissociation constant (KD) for exemplary lipocalin muteins are summarized in Table 4.

[8] = mutein 5 mg/kg daily to lung, antibody 10 mg/kg every other day intravenous

cynomolgus CTGF, sequence (as listed by the source): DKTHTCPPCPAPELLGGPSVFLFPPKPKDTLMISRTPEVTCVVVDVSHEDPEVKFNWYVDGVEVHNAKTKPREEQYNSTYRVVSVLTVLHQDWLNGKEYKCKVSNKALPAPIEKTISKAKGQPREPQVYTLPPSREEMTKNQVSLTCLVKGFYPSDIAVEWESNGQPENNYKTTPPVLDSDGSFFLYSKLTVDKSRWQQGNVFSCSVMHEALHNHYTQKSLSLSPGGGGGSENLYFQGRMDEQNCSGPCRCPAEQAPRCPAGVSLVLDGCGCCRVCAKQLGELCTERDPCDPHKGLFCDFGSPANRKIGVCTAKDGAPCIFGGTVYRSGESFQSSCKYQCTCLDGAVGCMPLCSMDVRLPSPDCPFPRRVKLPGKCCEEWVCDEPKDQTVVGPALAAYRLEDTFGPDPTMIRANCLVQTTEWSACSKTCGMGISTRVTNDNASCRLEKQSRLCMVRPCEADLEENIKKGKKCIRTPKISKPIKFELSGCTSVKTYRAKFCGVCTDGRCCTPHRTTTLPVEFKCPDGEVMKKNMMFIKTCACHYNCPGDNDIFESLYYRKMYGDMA
T3 sequence (P29279 with tags, fused parts or gaps H83D): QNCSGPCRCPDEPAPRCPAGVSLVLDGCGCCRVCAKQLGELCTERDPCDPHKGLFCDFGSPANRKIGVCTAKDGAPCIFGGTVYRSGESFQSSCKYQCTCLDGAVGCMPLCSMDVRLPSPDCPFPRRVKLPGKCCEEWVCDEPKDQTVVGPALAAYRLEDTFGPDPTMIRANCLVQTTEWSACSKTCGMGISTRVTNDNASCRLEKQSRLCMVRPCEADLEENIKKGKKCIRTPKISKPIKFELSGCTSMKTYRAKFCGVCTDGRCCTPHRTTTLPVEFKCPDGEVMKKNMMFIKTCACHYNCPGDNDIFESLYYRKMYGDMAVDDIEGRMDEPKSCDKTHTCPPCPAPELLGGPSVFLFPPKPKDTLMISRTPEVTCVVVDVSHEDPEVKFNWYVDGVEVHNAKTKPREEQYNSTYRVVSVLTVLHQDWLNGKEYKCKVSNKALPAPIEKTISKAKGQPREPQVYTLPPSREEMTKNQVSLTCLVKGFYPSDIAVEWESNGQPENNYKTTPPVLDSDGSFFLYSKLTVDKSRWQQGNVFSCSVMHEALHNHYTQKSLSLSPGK
T4 sequence (P29279 with tags, fused parts or gaps H83D): as above

B1: SEQ ID NO: 24: optimized CTGF-binding hNGAL lipocalin mutein (protein)
chain: QDSTSDLIPAPPLSKVPLQQNFQDNQFQGKWYVVGVAGNAILRTDKQPAKMFATIYELKEDKSYDVTSVRFEAKSCKYTIKTFVPGSQPGEFTAGNIKSAPGQTSTLVRVVSTNYNQHAMVFFKHVSQNREIFVITLYGRTKELTSELKENFIRFSKSLGLPENHIVFPVPIDQCIDG
modifications: lipocalin mutein
For B1, the “Murine CTGF koff” value [1] was 1.16e-05 s⁻¹, the “Murine CTGF kon” value [1] was 299000 M⁻¹ s⁻¹ and the “Reduction of Ashcroft score vs mean of vehicle-treated animals” value ([2]; mutein 5 mg/kg daily local lung delivery day 0-13) was 14.1%. For the same molecule, the “Effect on Ashcroft score” value [2, 8] was “significantly decreased the Ashcroft score”, the “Reduction of Col1a1 positive lung surface area vs mean of vehicle controls” value [2, 8] was 25.2% and the “Rat CTGF koff” value [3] was 3.51e-05 s⁻¹. The “Rat CTGF kon” value [3] was 138000 M⁻¹ s⁻¹, the “human CTGF kon” value [4] was 157000 M⁻¹ s⁻¹ and the “human CTGF koff” value [5] was 1.41e-05 s⁻¹. For the same molecule, the “ONSET MELTING” value [6] was 58 °C, the TM ([6]; major transition) was 72 °C and the “cynomolgus CTGF koff” value [7] was 2.63e-05 s⁻¹. The “cynomolgus CTGF kon” value [7] was 195000 M⁻¹ s⁻¹.
